Source: publication PMC8439235, “High-yield synthesis and purification of recombinant human GABA transaminase for high-throughput screening assays” (Journal of Enzyme Inhibition and Medicinal Chemistry, 2021)

Target: the molecule itself
Experiment: SEC; Superdex 200 Increase 10/300 GL, 50 mM K4P2O7 buffer pH 8.6, 0.5 ml/min, 4 °C; size judged against standard peaks (158 kDa and 44 kDa) and the 53 kDa monomer band on reducing SDS-PAGE

B1: 6xHis-tagged recombinant human GABA transaminase (GABA-T) (enzyme)
chain: not shown
notes: human GABA transaminase (GABA-T; EC 2.6.1.19) encoded by the ABAT gene; The band on reducing SDS-PAGE was 53 kDa; The purification tag was not removed; also called γ-aminobutyric acid transaminase; 4-aminobutyrate transaminase; source: Expi293F cells, transiently transfected, purified (Ni-NTA, size-exclusion chromatography); not shown: Avi-tag (preceded by an HRV 3C protease site), C-terminal, …
  stoichiometry N: 2
